The series deals with the molecule itself. The series is described as follows: light scattering; GTP-dependent oligomerisation of recombinant Irga6 monitored by conventional light scattering, as described earlier (ref. 16).

Here are results for one protein from paper PMC3006384, “Phosphorylation of Mouse Immunity-Related GTPase (IRG) Resistance Proteins Is an Evasion Strategy for Virulent Toxoplasma gondii” (PLoS Biology, 2010).

B1: recombinant wt Irga6 (bacterially expressed, from pGEX-4T-2-Irga6) (natural protein)
chain: MGQLFSSPKSDENNDLPSSFTGYFKKFNTGRKIISQEILNLIELRMRKGNIQLTNSAISDALKEIDSSVLNVAVTGETGSGKSSFINTLRGIGNEEEGAAKTGVVEVTMERHPYKHPNIPNVVFWDLPGIGSTNFPPNTYLEKMKFYEYDFFIIISATRFKKNDIDIAKAISMMKKEFYFVRTKVDSDITNEADGKPQTFDKEKVLQDIRLNCVNTFRENGIAEPPIFLLSNKNVCHYDFPVLMDKLISDLPIYKRHNFMVSLPNITDSVIEKKRQFLKQRIWLEGFAADLVNIIPSLTFLLDSDLETLKKSMKFYRTVFGVDETSLQRLARDWEIEVDQVEAMIKSPAVFKPTDEETIQERLSRYIQEFCLANGYLLPKNSFLKEIFYLKYYFLDMVTEDAKTLLKEICLRN
notes: Irga6, mouse immunity-related GTPase (IRG) protein; Expressed as N-terminal GST fusion; also called recombinant Irga6
For the protein B1, the binding result was “binds”.
